B1: target 1 U8G,A18G (mixed)
RNA 1: CACCCGUGCAAAAAUGCAGGGGUCUAAAACUGAGCGGAUAACCUCUCUAUGG
RNA 2: GGGAAUGGAUCCACAUCUACGAAUUCGUACCAUGGAGAGGUUAGCCGCUCACCGAGAUCGGAAGAGCACACGU
B2: target 1 insC 3' of 15,insU 3' of 15 (mixed)
RNA 1: B1 RNA 1
RNA 2: GGGAAUGGAUCCACAUCUACGAAUUCGUACCAUAGAGCUAGGUUAUCCGCUCACCGAGAUCGGAAGAGCACACGU
B3: target 1 insU 3' of 18,insU 3' of 15 (mixed)
RNA 1: B1 RNA 1
RNA 2: B2 RNA 2 with G35U, A36G, G37A, C38G
B4: target 1 complement block 3-8 (mixed)
RNA 1: B1 RNA 1
RNA 2: B1 RNA 2 with G34A, G44A, C45G, C46G, G47C, C48G, U49A
B5: target 1 insC 3' of 8,insG 3' of 7 (mixed)
RNA 1: B1 RNA 1
RNA 2: B2 RNA 2 with C38A, U39G, A40G, G41U, G42U, U43A, A45C, U46C, C47G
B6: target 1 complement block 3-11 (mixed)
RNA 1: B1 RNA 1
RNA 2: GGGAAUGGAUCCACAUCUACGAAUUCGUACCAUAGAGAGGAAUAGGCGACACCGAGAUCGGAAGAGCACACGU
B7: target 1 G12U,G17U (mixed)
RNA 1: B1 RNA 1
RNA 2: B1 RNA 2 with G34A, G35U, G40U, G44U
B8: target 1 G15A,A18C (mixed)
RNA 1: B1 RNA 1
RNA 2: B1 RNA 2 with G34C, G37A, G44U
B9: target 1 insC 3' of 17,insG 3' of 16 (mixed)
RNA 1: B1 RNA 1
RNA 2: B2 RNA 2 with A36C, G37A, C38G, U39G
B10: target 1 U19A,C21U (mixed)
RNA 1: B1 RNA 1
RNA 2: B1 RNA 2 with C31U, U33A, G34A, G44U
B11: target 1 insA 3' of 11,insU 3' of 7 (mixed)
RNA 1: B1 RNA 1
RNA 2: B2 RNA 2 with C38A, U39G, A40G, G41U, G42A, U44A, A45U, U46C, C47U
B12: target 1 C7A,U11A (mixed)
RNA 1: B1 RNA 1
RNA 2: B1 RNA 2 with G34A, U41A, G44U, C45A
B13: target 1 C2U,A14G (mixed)
RNA 1: B1 RNA 1
RNA 2: B1 RNA 2 with G34A, A38G, G44U, C50U
B14: target 1 insA 3' of 19,insC 3' of 12 (mixed)
RNA 1: B1 RNA 1
RNA 2: B2 RNA 2 with G35A, A36G, G37A, C38G, U39A, A40G, G42C
B15: target 1 insU 3' of 14,insG 3' of 7 (mixed)
RNA 1: B1 RNA 1
RNA 2: B2 RNA 2 with C38A, A40G, G42U, U44A, A45U, U46C, C47G
B16: target 1 insA 3' of 15,insC 3' of 9 (mixed)
RNA 1: B1 RNA 1
RNA 2: B2 RNA 2 with C38A, U39A, A40G, G42U, U44A, A45C
B17: target 1 G5C,G12U (mixed)
RNA 1: B1 RNA 1
RNA 2: B1 RNA 2 with G34A, G40U, G44U, G47C
B18: target 1 insU 3' of 1 (mixed)
RNA 1: B1 RNA 1
RNA 2: GGGAAUGGAUCCACAUCUACGAAUUCGUACCAUAGAGAGGUUAUCCGCUCAUCCGAGAUCGGAAGAGCACACGU
B19: target 1 U3C (mixed)
RNA 1: B1 RNA 1
RNA 2: B1 RNA 2 with G34A, G44U, U49C
B20: target 1 insU 3' of 12,insC 3' of 9 (mixed)
RNA 1: B1 RNA 1
RNA 2: B2 RNA 2 with C38A, U39G, A40G, G41U, G42U, U44A, A45C
B21: target 1 insU 3' of 22,insG 3' of 20 (mixed)
RNA 1: B1 RNA 1
RNA 2: B2 RNA 2 with C31U, A32C, U33A, A34G, G35U, C38A, U39G
B22: target 1 insU 3' of 17,insC 3' of 9 (mixed)
RNA 1: B1 RNA 1
RNA 2: B2 RNA 2 with A36U, G37A, C38G, U39A, A40G, G42U, U44A, A45C
B23: target 1 G5A,U11C (mixed)
RNA 1: B1 RNA 1
RNA 2: B1 RNA 2 with G34A, U41C, G44U, G47A
B24: target 1 C6U,A20C (mixed)
RNA 1: B1 RNA 1
RNA 2: B1 RNA 2 with A32C, G34A, G44U, C46U
B25: target 1 insU 3' of 9,insC 3' of 8 (mixed)
RNA 1: B1 RNA 1
RNA 2: B2 RNA 2 with C38A, U39G, A40G, G41U, G42U, U43A, A45U, U46C
B26: target 1 insA 3' of 7,insA 3' of 4 (mixed)
RNA 1: B1 RNA 1
RNA 2: GGGAAUGGAUCCACAUCUACGAAUUCGUACCAUAGAGAGGUUAUCACGCAUCACCGAGAUCGGAAGAGCACACGU
B27: target 1 U3A,U11A (mixed)
RNA 1: B1 RNA 1
RNA 2: B1 RNA 2 with G34A, U41A, G44U, U49A
B28: target 1 insC 3' of 13,insC 3' of 12 (mixed)
RNA 1: B1 RNA 1
RNA 2: B2 RNA 2 with C38A, U39G, A40C, G42C
B29: target 1 insG 3' of 4,insU 3' of 4 (mixed)
RNA 1: B1 RNA 1
RNA 2: B26 RNA 2 with A46C, C47G, G48C, C49G, A50U
B30: target 1 A14C,G15U (mixed)
RNA 1: B1 RNA 1
RNA 2: B1 RNA 2 with G34A, G37U, A38C, G44U
B31: target 1 insC 3' of 13,insA 3' of 10 (mixed)
RNA 1: B1 RNA 1
RNA 2: B2 RNA 2 with C38A, U39G, A40C, G42U, U44A
B32: target 1 C4A,U10G (mixed)
RNA 1: B1 RNA 1
RNA 2: B1 RNA 2 with G34A, U42G, G44U, C48A
B33: target 1 insG 3' of 9,insC 3' of 9 (mixed)
RNA 1: B1 RNA 1
RNA 2: B26 RNA 2 with U44G, A46U, G48C, C49G, A50C

Substitutions are numbered along the chain they refer to. In names and notes the source's numbering stands.

The series addresses T1, EsCas13d, nuclease-dead (Eubacterium siraeum, UniProt B0MS50, R295A;H300A;R849A;H854A).
T1 sequence: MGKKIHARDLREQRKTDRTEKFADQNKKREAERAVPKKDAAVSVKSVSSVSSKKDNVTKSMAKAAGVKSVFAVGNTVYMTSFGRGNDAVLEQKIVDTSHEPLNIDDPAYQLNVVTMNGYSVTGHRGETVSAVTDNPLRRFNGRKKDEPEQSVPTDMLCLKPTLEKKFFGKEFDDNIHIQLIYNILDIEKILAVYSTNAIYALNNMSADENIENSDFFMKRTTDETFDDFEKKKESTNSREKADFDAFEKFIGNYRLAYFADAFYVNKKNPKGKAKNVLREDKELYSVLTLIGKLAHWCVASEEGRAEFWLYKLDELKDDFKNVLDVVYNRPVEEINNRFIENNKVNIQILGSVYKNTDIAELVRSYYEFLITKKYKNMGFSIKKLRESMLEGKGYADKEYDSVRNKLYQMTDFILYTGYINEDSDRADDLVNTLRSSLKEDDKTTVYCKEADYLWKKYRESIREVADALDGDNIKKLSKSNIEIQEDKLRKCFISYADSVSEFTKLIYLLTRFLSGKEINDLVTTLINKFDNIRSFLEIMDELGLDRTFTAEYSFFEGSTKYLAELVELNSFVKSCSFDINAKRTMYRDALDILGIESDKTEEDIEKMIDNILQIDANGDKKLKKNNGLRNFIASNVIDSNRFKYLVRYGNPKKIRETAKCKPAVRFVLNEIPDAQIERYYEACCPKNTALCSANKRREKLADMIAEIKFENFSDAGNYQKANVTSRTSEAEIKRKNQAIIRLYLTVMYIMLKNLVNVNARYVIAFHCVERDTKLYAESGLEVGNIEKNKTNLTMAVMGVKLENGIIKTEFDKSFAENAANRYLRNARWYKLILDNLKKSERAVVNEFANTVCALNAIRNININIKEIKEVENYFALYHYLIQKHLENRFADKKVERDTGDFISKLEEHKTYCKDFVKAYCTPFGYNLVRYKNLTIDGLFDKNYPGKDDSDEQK
Nature of the series: crRNA (strand 1, pre-loaded); Mg2+; 40 mM Tris-HCl pH 7.5, 150 mM NaCl, 6 mM MgCl2, 1 mM DTT, 0.1% Tween-20, 0.2 mg/ml BSA; 25 C; 10 min per concentration, then washed. Conditions: tags: His6-TwinStrep-SUMO cleaved; N-terminal SNAP kept (SNAP-Surface 488); label: 3' end held by stalled T7 RNA polymerase.
B1 returned a Kd of 66 ± 21 nM.
For B2 the value was 23.3 ± 1.1 nM.
As for B3, the figure is 50 ± 12 nM; as for B4, 9.9 ± 0.4 nM.
For B5 the value was 10.3 ± 0.9 nM.
Turning to B6, binding was characterised by a dissociation constant (Kd) of 13 ± 0.6 nM.
As for B7, the figure is 31.3 ± 3.5 nM; as for B8, 81 ± 15 nM.
With B9, the Kd stood at 64 ± 6 nM.
Regarding B10, binding was put at a Kd of 10.3 ± 1 nM.
Molecule B11 gave a Kd of 48 ± 5 nM.
For the molecule B12, binding was put at a Kd of 17.9 ± 1.3 nM.
Turning to B13, the Kd came out at 15 ± 0.7 nM.
For B14 the value was 70 ± 31 nM; for B15, 29.3 ± 1.7 nM.
As for B16, the figure is 9 ± 0.9 nM.
As for B17, the figure is 8.7 ± 0.6 nM.
For B18, binding was put at a Kd of 9.6 ± 0.4 nM.
Take B19: the dissociation constant Kd worked out at 26.3 ± 3.2 nM.
B20: the Kd came to 11.6 ± 0.6 nM.
The molecule B21 returned a Kd of 78 ± 24 nM.
Consider B22, for which the affinity, expressed as Kd, was 25.1 ± 1.6 nM.
For B23 the value was 34 ± 4 nM; for B24, 100 ± 50 nM.
For B25 the value was 42 ± 10 nM; for B26, 4.53 ± 0.23 nM.
For B27 the value was 12.7 ± 0.7 nM.
The molecule B28 came in with a Kd of 17.7 ± 1.2 nM. This Kd and that of the molecule before are within 1.5-fold of each other.
As to B29, the affinity, expressed as Kd, was 7 ± 0.4 nM.
Take B30: the Kd amounted to 35 ± 6 nM.
For B31 the value was 12.7 ± 0.6 nM.
B32 registered a Kd of 10.1 ± 0.9 nM.
Turning to B33, the Kd came to 17.2 ± 0.7 nM.

For the origin of these results see paper PMC10786891, “Massively parallel profiling of RNA-targeting CRISPR-Cas13d”.
